Measured values reported in US8697386B2, “Methods and compositions for modulating hepsin activation of macrophage-stimulating protein” (Genentech, Inc., priority 2009, dated 2014).
“Also recorded” adds a separate entry of the source.

B1: pro-MSP: inactive single-chain precursor of MSP; recombinant human MSP with C672A mutation expressed in Chinese Hamster Ovary cells (protein, listed as Homo sapiens)
chain: MGWLPLLLLLTQCLGVPGQRSPLNDFQVLRGTELQHLLHAVVPGPWQEDVADAEECAGRCGPLMDCRAFHYNVSSHGCQLLPWTQHSPHTRLRRSGRCDLFQKKDYVRTCIMNNGVGYRGTMATTVGGLPCQAWSHKFPNDHKYTPTLRNGLEENFCRNPDGDPGGPWCYTTDPAVRFQSCGIKSCREAACVWCNGEEYRGAVDRTESGRECQRWDLQHPHQHPFEPGKFLDQGLDDNYCRNPDGSERPWCYTTDPQIEREFCDLPRCGSEAQPRQEATTVSCFRGKGEGYRGTANTTTAGVPCQRWDAQIPHQHRFTPEKYACKDLRENFCRNPDGSEAPWCFTLRPGMRAAFCYQIRRCTDDVRPQDCYHGAGEQYRGTVSKTRKGVQCQRWSAETPHKPQFTFTSEPHAQLEENFCRNPDGDSHGPWCYTMDPRTPFDYCALRRCADDQPPSILDPPDQVQFEKCGKRVDRLDQRRSKLRVVGGHPGNSPWTVSLRNRQGQHFCGGSLVKEQWILTARQCFSSCHMPLTGYEVWLGTLFQNPQHGEPSLQRVPVAKMVCGPSGSQLVLLKLERSVTLNQRVALICLPPEWYVVPPGTKCEIAGWGETKGTGNDTVLNVALLNVISNQECNIKHRGRVRESEMCTEGLLAPVGACEGDYGGPLACFTHNAWVLEGIIIPNRVCARSRWPAVFTRVSVFVDWIHKVMRLG
B2: pro-MSP-R483E: pro-MSP mutated to render it uncleavable at Arg483-Val484 (protein)
chain: QRSPLNDFQVLRGTELQHLLHAVVPGPWQEDVADAEECAGRCGPLMDCRAFHYNVSSHGCQLLPWTQHSPHTRLRRSGRCDLFQKKDYVRTCIMNNGVGYRGTMATTVGGLPCQAWSHKFPNDHKYTPTLRNGLEENFCRNPDGDPGGPWCYTTDPAVRFQSCGIKSCREAACVWCNGEEYRGAVDRTESGRECQRWDLQHPHQHPFEPGKFLDQGLDDNYCRNPDGSERPWCYTTDPQIEREFCDLPRCGSEAQPRQEATTVSCFRGKGEGYRGTANTTTAGVPCQRWDAQIPHQHRFTPEKYACKDLRENFCRNPDGSEAPWCFTLRPGMRAAFCYQIRRCTDDVRPQDCYHGAGEQYRGTVSKTRKGVQCQRWSAETPHKPQFTFTSEPHAQLEENFCRNPDGDSHGPWCYTMDPRTPFDYCALRRCADDQPPSILDPPDQVQFEKCGKRVDRLDQRRSKLEVVGGHPGNSPWTVSLRNRQGQHFCGGSLVKEQWILTARQCFSSCHMPLTGYEVWLGTLFQNPQHGEPSLQRVPVAKMVCGPSGSQLVLLKLERSVTLNQRVALICLPPEWYVVPPGTKCEIAGWGETKGTGNDTVLNVALLNVISNQECNIKHRGRVRESEMCTEGLLAPVGACEGDYGGPLACFTHNAWVLEGIIIPNRVCARSRWPAVFTRVSVFVDWIHKVMRLG
B3: commercially available MSP: recombinant active form of human MSP (R&D Systems) (protein)
chain 1: QRSPLNDFQVLRGTELQHLLHAVVPGPWQEDVADAEECAGRCGPLMDCRAFHYNVSSHGCQLLPWTQHSPHTRLRRSGRCDLFQKKDYVRTCIMNNGVGYRGTMATTVGGLPCQAWSHKFPNDHKYTPTLRNGLEENFCRNPDGDPGGPWCYTTDPAVRFQSCGIKSCREAACVWCNGEEYRGAVDRTESGRECQRWDLQHPHQHPFEPGKFLDQGLDDNYCRNPDGSERPWCYTTDPQIEREFCDLPRCGSEAQPRQEATTVSCFRGKGEGYRGTANTTTAGVPCQRWDAQIPHQHRFTPEKYACKDLRENFCRNPDGSEAPWCFTLRPGMRAAFCYQIRRCTDDVRPQDCYHGAGEQYRGTVSKTRKGVQCQRWSAETPHKPQFTFTSEPHAQLEENFCRNPDGDSHGPWCYTMDPRTPFDYCALRRCADDQPPSILDPPDQVQFEKCGKRVDRLDQRRSKLR
chain 2: VVGGHPGNSPWTVSLRNRQGQHFCGGSLVKEQWILTARQCFSSCHMPLTGYEVWLGTLFQNPQHGEPSLQRVPVAKMVCGPSGSQLVLLKLERSVTLNQRVALICLPPEWYVVPPGTKCEIAGWGETKGTGNDTVLNVALLNVISNQECNIKHRGRVRESEMCTEGLLAPVGACEGDYGGPLACFTHNCWVLEGIIIPNRVCARSRWPAVFTRVSVFVDWIHKVMRLG

Key:
human Ron = biological target: T1, human Ron (Homo sapiens, UniProt Q04912); experiment: Binding to Ron by surface plasmon resonance (BIAcore); conditions: SPR; for detectable binding to Ron: up to a concentration of 1 μM
T1 construct: the Ron (Sema IPT1)-IgG fusion protein was captured
T1 sequence (Q04912 25-683 limits assumed): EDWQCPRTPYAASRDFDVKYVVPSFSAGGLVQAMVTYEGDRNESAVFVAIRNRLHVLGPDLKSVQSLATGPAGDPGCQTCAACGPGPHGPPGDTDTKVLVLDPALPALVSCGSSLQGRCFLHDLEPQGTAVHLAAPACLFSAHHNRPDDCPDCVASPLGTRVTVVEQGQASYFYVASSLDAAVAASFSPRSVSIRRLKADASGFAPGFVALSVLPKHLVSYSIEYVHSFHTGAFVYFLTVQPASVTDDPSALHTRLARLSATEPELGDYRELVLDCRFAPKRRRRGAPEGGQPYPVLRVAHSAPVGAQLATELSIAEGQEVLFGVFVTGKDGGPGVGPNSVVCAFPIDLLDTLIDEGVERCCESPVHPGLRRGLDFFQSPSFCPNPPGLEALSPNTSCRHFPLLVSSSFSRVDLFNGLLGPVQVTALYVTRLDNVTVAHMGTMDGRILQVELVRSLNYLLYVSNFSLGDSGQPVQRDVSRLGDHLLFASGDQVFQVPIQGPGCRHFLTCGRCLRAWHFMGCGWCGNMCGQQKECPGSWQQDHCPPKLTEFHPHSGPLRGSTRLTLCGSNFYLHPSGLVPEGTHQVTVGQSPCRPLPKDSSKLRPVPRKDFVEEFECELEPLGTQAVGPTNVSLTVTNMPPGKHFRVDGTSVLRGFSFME
Method: Binding of hepsin-activated pro-MSP to Ron by surface plasmon resonance and ELISA: To determine binding affinity of hepsin-activated MSP to human Ron, surface plasmon resonance measurements on a BIAcore™-3000 instrument (GE Health Care, NJ) were performed. Rabbit anti-human IgG were chemically immobilized (amine coupling) on CM5 biosensor chips and the Ron (Sema IPT1)-IgG fusion protein was captured to give approximately 250 response units (RU). For kinetics measurements, different concentration of either hepsin-activated MSP or a commercially available MSP (R&D systems) were injected in HBS-P buffer at 25° C. with a flow rate of 30 μl/min. Association rates (kon) and dissociation rates (koff) were obtained by using a simple one-to-one Langmuir binding model (BIA-Evaluation) and the equilibrium dissociation constants (KD) were calculated (koff/kon). For ELISA experiments, maxiSorp microtiter plates (Nunc, Roskilde, Denmark) were coated overnight at 4° C. with 2 μg/ml of rabbit anti-human IgG Fc specific antibody (Jackson ImmunoResearch Laboratory, West Grove, Pa.) in 50 mM sodium carbonate buffer, pH 9.6. After blocking with assay buffer (PBS pH 7.4, 0.5% BSA and 0.05% Tween-20, 15 PPM Proclin), 1 μg/ml Ron (Sema IPT1)-IgG fusion protein was added and plates were incubated for 1 hour with gentle shaking at room temperature. After washing with wash buffer (PBS, 0.05% polysorbate 20), His tagged MSP proteins were added for 1 hour. Bound MSP was detected using anti-His-HRP (Qiagen, Valencia, Calif.) followed by addition of TMB/H2O2 substrate (KPL, Gaithersburg, Md.). The reaction was stopped with 1M H3PO4 and the A450 was measured on a Molecular Devices (Sunnyvale, Calif.) SpectraMax Plus^384 microplate reader. The effective concentration to give half-maximal binding (EC50) was determined by a four parameter fit using Kaleidagraph (Synergy Software, Reading, Pa.).

hepsin = biological target: T2, hepsin (Homo sapiens, UniProt P05981); experiment: In vitro activation of pro-MSP by recombinant hepsin (SDS-PAGE); format: biochemical; conditions: 25 μg/ml substrate, hepsin 1.25-10 nM, 37° C., SDS-PAGE reducing; mutant up to 24 hours
T2 construct: The extracellular domain of the human recombinant hepsin was expressed and purified as described; made in house
T2 sequence (P05981 45-417 limits assumed): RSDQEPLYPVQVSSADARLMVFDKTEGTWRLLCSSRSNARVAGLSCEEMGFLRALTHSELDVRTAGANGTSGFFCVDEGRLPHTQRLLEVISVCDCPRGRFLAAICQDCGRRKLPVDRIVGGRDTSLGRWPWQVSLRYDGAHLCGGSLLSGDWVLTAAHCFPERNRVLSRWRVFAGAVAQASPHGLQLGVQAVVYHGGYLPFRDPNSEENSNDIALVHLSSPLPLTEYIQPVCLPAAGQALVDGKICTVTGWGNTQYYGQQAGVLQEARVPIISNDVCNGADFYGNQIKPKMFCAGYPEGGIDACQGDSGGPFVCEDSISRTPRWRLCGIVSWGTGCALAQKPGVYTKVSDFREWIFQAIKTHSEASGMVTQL
Method: Analysis of in vitro activation of pro-msp by hepsin using sds-page: Pro-MSP (25 μg/ml) was incubated with different concentrations of hepsin (1.25 nM, 2.5 nM, 5 nM and 10 nM) in a buffer containing 50 mM Tris-HCl pH 8.0, 150 mM NaCl, 0.05% Triton-X100 and 2 mM CaCl2 at 37° C. Aliquots of the reaction mixture at different time points were mixed 6×-SDS sample buffer and the samples were boiled for 5 minutes at 95° C. and separated by SDS-PAGE using a 4-20% gradient gel. Protein was visualized after staining with SimplyBlue Safe Stain (Invitrogen, Carlsbad, Calif.). Similar experiments were performed with the pro-MSP that was mutated to render it uncleavable at Arg483-Val484(pro-MSP-R483E) to assess if proteolytic cleavage site occurs at a different site apart from the expected Arg483-Val484 bond in pro-MSP.

bone marrow macrophages = experiment: Inhibition of nitric oxide (NO) synthesis in bone marrow macrophages; format: cell-based, mouse; conditions: MSP/pro-MSP 10 ng/ml, hepsin 1 nM, 24 hours, Griess reaction
Method: Inhibition of NO synthesis by mature MSP: Bone marrow cells obtained from collected mouse femurs were pipetted to a single-cell suspension and then spun down. Red blood cells were lysed by incubation with erythrocyte lysis buffer for 5 minutes at room temperature. Cells were then suspended in macrophage differentiation medium (DMEM with glutamine containing 10% FBS, Pen/Strep and 50 ng/ml recombinant mCSF-1). Cells were then plated onto sterile 24-well non-tissue culture dishes. Medium was changed the next day and subsequently every 2 days. After 6 days in culture, the macrophages were mature and these mature cells were washed in serum-free DMEM and further incubated for 2 hours. Different reactions (total volume 300 μL) as indicated in the figure consisting of recombinant MSP (10 ng/ml), pro-MSP (10 ng/ml), hepsin (1 nM) and Fab25 (500 nM) were added to the respective wells and cultured for 24 hours at 37° C. in a tissue culture incubator. NO production was quantified using Griess reaction (Molecular Probes) according to manufacturer's recommendation.

Ron signaling pathway = experiment: Immunoblot for phosphorylated downstream kinases in A2780 cells overexpressing human Ron; format: cell-based; conditions: pro-MSP 10 and 50 ng/ml, 10 nM hepsin, 1 hour
Method: Immunoblot for the detection of phosphorylated kinases: A human ovarian carcinoma cell line (A2780) overexpressing human Ron was used to study the phosphorylation of Ron and other downstream kinase. Cells at a density of 2×10^5 cells/well were cultured in 12-well plate and serum-starved for 24 hours. The cells were then stimulated with either pro-MSP (10 and 50 ng/ml) alone or in presence of 10 nM Hepsin for 1 hour. Mature MSP from a commercial source and hepsin were used as controls. Samples were prepared by washing cells twice with cold PBS followed by addition of 200 ul lysis buffer. Samples were then analyzed by SDS/PAGE on 4-12% Tris-glycine gels (Invitrogen, Carlsbad, Calif.). Proteins were transferred onto nitrocellulose membranes and subsequently treated with anti-Ron antibody or anti-phospho-AKT antibody or anti-phospho-MAPK antibody or anti-phospho-S6 antibody, overnight at 4° C. After washing, membranes were incubated with IRDye800-conjugated goat anti-mouse IgG (Rockland, Gilbertsville, Pa.) and AlexaFluor 680 goat anti-rabbit IgG (Invitrogen) for 1 h. Proteins were detected with the Odyssey Infrared Imaging System (LI-COR Biosciences, Lincoln, Nebr.).

Molecule | detectable binding to Ron (human Ron) | proteolytic cleavage/activation by hepsin (hepsin) | effect on NO production in response to LPS (bone marrow macrophages) | phosphorylation of MAP kinase and S6 kinase (activation of Ron signaling pathway) (Ron signaling pathway) | Kd (human Ron; Ron-Fc captured on CM5 chip, 1:1 binding model, 25° C., read-out: KD, binding affinity to Ron) [nM]
B1 | Neither pro-MSP nor the cleavage site mutant (pro-MSP-R483E) had any detectable binding; also recorded: No detectable binding | activated pro-MSP in a dose-dependent and time dependent manner | did not inhibit | Neither hepsin nor pro-MSP alone was effective | –
B2 | Neither pro-MSP nor the cleavage site mutant (pro-MSP-R483E) had any detectable binding | did not cleave | – | – | –
B3 | – | – | – | – | 4.4
